The numbers were not newly measured in US20160354395A1, “INFANT FORMULAS CONTAINING A 2-FUCOSYLATED OLIGOSACCHARIDE FOR TREATMENT OR PREVENTION OF INFLUENZA INFECTION” (NESTEC S.A., priority 2013, published 2016), which cites them from elsewhere.

This data set deals with influenza virus. The following applies: mice.

B1: Lactoferrin: a protein of the transferrin family, present in milk; given in the diet at 25 g/kg (protein, UniProt P24627 20-708, looked up)
Lactotransferrin: APRKNVRWCTISQPEWFKCRRWQWRMKKLGAPSITCVRRAFALECIRAIAEKKADAVTLDGGMVFEAGRDPYKLRPVAAEIYGTKESPQTHYYAVAVVKKGSNFQLDQLQGRKSCHTGLGRSAGWIIPMGILRPYLSWTESLEPLQGAVAKFFSASCVPCIDRQAYPNLCQLCKGEGENQCACSSREPYFGYSGAFKCLQDGAGDVAFVKETTVFENLPEKADRDQYELLCLNNSRAPVDAFKECHLAQVPSHAVVARSVDGKEDLIWKLLSKAQEKFGKNKSRSFQLFGSPPGQRDLLFKDSALGFLRIPSKVDSALYLGSRYLTTLKNLRETAEEVKARYTRVVWCAVGPEEQKKCQQWSQQSGQNVTCATASTTDDCIVLVLKGEADALNLDGGYIYTAGKCGLVPVLAENRKSSKHSSLDCVLRPTEGYLAVAVVKKANEGLTWNSLKDKKSCHTAVDRTAGWNIPMGLIVNQTGSCAFDEFFSQSCAPGADPKSRLCALCAGDDQGLDKCVPNSKEKYYGYTGAFRCLAEDVGDVAFVKNDTVWENTNGESTADWAKNLNREDFRLLCLDGTRKPVTEAQSCHLAVAPNHAVVSRSDRAAHVKQVLLHQQALFGKNGKNCPDKFCLFKSETKNLLFNDNTECLAKLGGRPTYEEYLGTEYVTAIANLKKCSTSPLLEACAFLTR
Turning to B1, the “number of infiltrated leukocytes recovered from bronchoalveolar lavage fluid” value (day 6) is “significantly lower”. The lung consolidation score result (day 6 after infection, vs control mice given water) is listed as “significantly lower”.
